Measured values as given in PMC5626478, “LARP4 mRNA codon-tRNA match contributes to LARP4 activity for ribosomal protein mRNA poly(A) tail length protection”.

Molecular target: LARP4-NTD (1-286) (human, UniProt Q71RC2 1-286)
Assay: EMSA; EMSA as described in Yang et al. 2011; buffer, salt, pH and temperature not given; protein in uM
Conditions: protein: recombinant

LARP4-NTD (1-286), sequence (Q71RC2 1-286): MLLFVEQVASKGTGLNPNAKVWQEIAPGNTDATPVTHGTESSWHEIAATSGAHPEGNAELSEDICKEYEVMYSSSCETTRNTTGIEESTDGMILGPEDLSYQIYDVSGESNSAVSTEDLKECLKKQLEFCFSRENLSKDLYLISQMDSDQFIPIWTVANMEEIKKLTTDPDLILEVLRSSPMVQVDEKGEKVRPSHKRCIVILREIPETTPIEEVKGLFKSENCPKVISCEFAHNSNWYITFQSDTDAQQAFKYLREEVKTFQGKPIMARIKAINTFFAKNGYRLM

Question: Does AAAAAAAAAAAAAAA (ssRNA) [A15 3'-OH] bind?
Answer: Result: binds
